# The supplement of paper PMC12042874
# ± gives the uncertainty stated by the source.
# Experiment: amyloid nucleation score (Sup35N fusion, yeast selection) (log enrichment); library NNK3; higher = more nucleation; inactive = no reads after selection
# How it was run: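 Nucleation score is defined as the DiMSum log enrichment of output over input reads, with centring on the mode score of non-aggregating sequences. A minimum of 100 input reads was required for each sequence. Reads came from Illumina sequencing of plasmid inserts from psi-negative yeast expressing Sup35N fused to peptides of 20 random codons, induced with 100 μM copper sulfate for 24 hours and grown 7 days at 30°C on medium lacking adenine and uracil.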
row,Substance,amyloid nucleation score
1,FLRRLSRKTKDMDSSRGMCC,inactive
2,SSRTTIQ,inactive
3,YGCFVPY,inactive
4,NRVLSVFDLFLRVAFASRFR,inactive
5,ECYMVCFDSCSNIMFVLDLE,1.92 ± 0.095
6,LQFGVRINSLFYRMVSAVVG,inactive
7,VMTAGWYLFLLSGSEGYVVS,-0.325 ± 1.2
8,DPSNACPWGR,inactive
9,NFLSSNFKKALHLFPISDCN,inactive
10,LWTELYVYPLNMTVMVAIF,inactive
11,MEINGALRYMH,inactive
12,FCLMHRRWMVVCACIYRWLK,inactive
13,TLNGFLNGYEYQ,inactive
14,SFSEPAHWPSCSRFVRDCVS,inactive
15,VEWLTSLVVIFWNFGKNKFL,inactive
16,TDSNYNFNC,0.214 ± 0.34
17,CRVEVAICHRPLCSKVTLDG,inactive
18,SWYRVNYTLPC,inactive
19,HFSLSG,inactive
20,CSRLAQWFMLVSF,inactive
21,TVGSRGSTPHCTLLLVSWSL,inactive

row,Substance,amyloid nucleation score
1,NCKALGFNWALMGKSMSLRG,inactive
2,FYMAKRICKVQHGVNGPYAK,inactive
3,YLLDLTTVCAGPWRIPQLMK,inactive
4,NFFAACNMMVLPFSMDFCSR,2.77 ± 0.071
5,LGYMLNGGRMQKNATNKSGA,inactive
6,LSNHSSLASRSYFTNCN,inactive
7,NKVISSSLTFRFIKVQFIYH,inactive
8,YCMVKL,inactive
9,IVHNYFSFCHYNRGRVGLFI,2.64 ± 0.074
10,STIVGGSLCFPIASVTFNSC,2.2 ± 0.079
11,FDLGGLLPL,inactive
12,DICEIRTTIRAC,inactive
13,VWSQIERLKHHPEFHMWC,inactive
14,GKSRFRLRDAWWRLVTQQRR,inactive
15,VYKDHAIVLCWVVK,-0.437 ± 0.56
16,FTHNHK,inactive
17,SFNTLIILSILFVLRQCGTR,inactive
18,VLQHRLVFDFYKFCMSTMVH,inactive
19,LWLCSYNATGSFVAKD,-0.246 ± 0.5
20,SKAYKAYNVLRLISI,inactive
21,NILPRRGEQAV,inactive

row,Substance,amyloid nucleation score
1,ISLYNRNIYCRLTFMLRVIR,inactive
2,CNYSVVFCCNFWDYYLKECA,2.5 ± 0.06
3,FVLICGYFIFIWTVSFNCYW,inactive
4,RTWDLDVGVLRLWVLSIG,inactive
5,YAARNWIVQVD,inactive
6,LYWKEIPGMDYKMAV,inactive
7,RICWSDINWYNRIFLIAELC,inactive
8,PCFLMGPVIPIVFALYKILV,inactive
9,NVLVN,inactive
10,MHPCSL,inactive
11,PFGGMVLLILNDAFSMVYVS,inactive
12,LVFSRCWFSMTVEYISYSVD,inactive
13,IIMSLLIALP,0.653 ± 0.18
14,WLKNF,inactive
15,RMAYIENGVDTAACSDLYVL,inactive
16,YFQLLVSLVSVFH,inactive
17,EDRSHVAYTFFSALAQVT,inactive
18,GIMDLDEGLET,inactive
19,PARGLDQEMSSKVFMRGYLA,inactive
20,SVRTLLVTHFLRKPLALI,inactive
21,DTYMISNVAGNSRYALHGFV,inactive

row,Substance,amyloid nucleation score
1,WSKDG,inactive
2,SVHRLFISCKVWGFKVLWPV,inactive
3,LSLAS,inactive
4,KWVCYHSWDYTCYHGEWYPS,inactive
5,SPRLYETRMLPLTMGCGGDD,inactive
6,LFFLTCRCVRNAYHRYMVCI,inactive
7,LLIRVLYLWSLESISNG,inactive
8,LYESNVRCNRVVTSLFVSSQ,inactive
9,RVNHGGNLTRAKHERLFHLK,inactive
10,ISYTTSNYITLVYKLTNRAY,0.911 ± 0.13
11,RYSDHRGIKAVGFAHCFL,inactive
12,NAFLIGTDILRFMRVLFKQL,inactive
13,IWASRS,inactive
14,LPYPPAITALPRPCCVNHRV,inactive
15,FYSFCQSKSLMTFSGDLPPS,inactive
16,TLTGVPAGSTT,inactive
17,ICQWDVKMPRCATG,inactive
18,SNSVFIWYWPEWVEDWSSWL,0.607 ± 0.16
